A short description of the series: label from the status in PepcDB records.

This is an account of results in a protein production outcome set (Wang et al. 2014).

Regarding “MSKRWLYSLQLIFFITLVFVLVTGCYSHPNQNIQSANSKPVTSECRIIKHPLGETCIPLHPQRIIAMDEDILEILVALDLKPIAVAINFDEWSSREKQLWQKAEGIDSIVIGNHGILNLEKMLLLKPDLILGLAESTDRKSYELFSQIAPTVTVDYAQTAWRDVLLRVGNIIGKTEQAQKLIAEFQQRIEKLRVIVKNKLGKTKISVVRVYNYFHKTIEFRSNFSFPGSLLVELGLSFPEKQNQIPTSPGFPFVFASLERLDLLDADVMFVTLDAGGEENFKKFQASPLWQKLKAVKNNCVYTVDSGYWIFGNIMSANAILDDLDKYLLQQCR”, the protein production entry was “failed”. Then “MSKSLGFKVSVSFVNIFALPFFFVLLYGSGFVGAKLGLPHSTPLSFLSLRFMAAGLILLIIAKLIGNQLPNWREAIHISVAGSLTVCLFSVGVFVSIDMGLSPAVSALIVALQPILVALFARKLVNEQLNLAQWFGLLFGFLGVIVVVIDSIETTSFSWVAIAMSVLALFGVTFGSLYQKRYCADMEIFYGGAIQSLVSGLICLALLPFFESFKVVWTGEFIISLVYMVVGVSLGALSLLYIMIQRGEVSRVASVFYLVPVSAAVSAYLLFGETIESTTLFGASIIALGIFLTNRKSQNNMVVSMNK”, with “failed”. Turning to “MSKSTAEIRQAFLDFFHSKGHQVVASSSLVPNNDPTLLFTNAGMNQFKDVFLGLDKRNYSRATTSQRCVRAGGKHNDLENVGYTARHHTFFEMLGNFSFGDYFKHDAIQFAWELLTGENWFALPKERLWVTVYETDDEAYEIWEKEVGIPRERIIRIGDNKGAPYASDNFWQMGDTGPCGPCTEIFYDHGDHIWGGPPGSPEEDGDRYIEIWNIVFMQFNRQADGTMEPLPKPSVDTGMGLERIAAVLQHVNSNYDIDLFRTLIEAVAKVTGATDLGNKSLRVIADHIRSCAFLVADGVLPSNENRGYVLRRIIRRAVRHGNMLGAKETFFYKLVGPLIEVMGSAGEELKRQQAQVEQVLKTEEEQFARTLERGLALLDEELAKLQGDTLDGETAFRLYDTYGFPVDLTADVCRERNIKVDEAGFEAAMEEQRRRAREASGFGADYNAMIRVDSASEFKGYDHLELNGKVTALFVDGKAVEAINAGQEAVVVLDQTPFYAESGGQVGDKGELKGAGFTFAVDDTQKYGQAIGHLGKLSAGALKVGDAVQADVDEARRARIRLNHSATHLMHAALRQVLGTHVAQKGSLVSDKVLRFDFSHNEAMKPSEIREVEDLVNAQIRRNLPIETNIMDLDAAKAKGAMALFGEKYDERVRVLSMGDFSTELCGGTHASRTGDIGLFRIISESGTAAGIRRIEAVTGEGAMATVHAQSDRLNDIAHLLKGDSQNLGDKVRAVLERTRQLEKELQQLKDQAAAQESANLSSKAVDLNGVKLLVSELAGIEPKMLRTMVDDLKNQLGSTVIVLATVVEGKVSLIAGVSKDVTDRVKAGELIGMVAQQVGGKGGGRPDMAQAGGTDAAALPAALASVQGWVSAKLQ”, the protein production entry is on record as “failed”.

In the case of “MSKTANFLSLRSNPLPPIFSSTGNSPFLRASSALNLPTTASKPFHSWIRASSRRRLVLGGFGGASLWMNNNMSGKFGGKSFIASARQTNPSPVEQALNKVDWPETFPFKEEDFQRYDESSDSTFYEAPRFVTHIDDPAIAALTKYYSKVLPQSDTPGVSILDMCSSWVSHYPPGYRQERIVGMGMNEEELKRNPVLTEYIVQDLNLNSNLPFEDNSFQVITNVVSVDYLTKPLEVFKEMNRILKPGGLALMSFSNRCFFTKAISIWTSTGDADHALIVGSYFHYAGGFEAPQAVDISPNPGRSDPMYVVYSRKLPMV”, the protein production result is “failed”. The value for “MSKTVVLPQSDSPSVVASVSFWQAFRFWLKLGFISFGGPAGQIAMMHQELVDNRRWISEGRFLHALNFCMVLPGPEAQQLATYIGWLMHKTWGGVIAGVLFILPSLVLLIALAWIYLVWGDVAVVAGIFYGIKPAVAAIVLQAAHRIGSRALKNGAYWAIAAAAFVAIFALNVPFPLIVLAAALVGFIGGRLAPTIFGRADAHHAQSHPGGAAIIDDTTPIPAHAIFSWRRTSQVLIAGMLLWLVPMAALTLMLGWAHPLTQMSWFFTKAALMTFGGAYAVLPYVYQGAVTHYGWLTAGQMMDGLALGESTPGPLIMVVTFVGFVGGYTKAVLGVDDVLLGGIAAACLVTWFTFLPSFIFILAGGPFIETTHNKVGFTAPLTAITAAVVGVILNLALFFIWHSVWGPSGFDPWSAAIALGAAGLLFRYKWKLTWVLATAAAVGLIVHMAGLSGAG” was “failed”.
